Assay: label from the status in PepcDB records

| Sequence | protein production |
| --- | --- |
| MSERVSEEPGLDKGDRAEECELDDPELKAIRMRVREMEEEAERLKGLSGQDKSIGVSTRPCMQTTHSKMTAGAYTEGPPQPLSAEEKKEIDKRSVYVGNVDYGSTAQDLEAHFSSCGSINRITILCDKFSGHPKGYAYIEFAERNSVDAAVAMDETVFRGRTIKVLPKRTNMPGISSTDRGGFRGRPRGNRGNYQRGQRPRGRPFRGRGRPGPLNNPY | not failed |
| MSESNRQRATGLVQAYYEAFNRGDWDAMLAFLAEDVAHDLNQGPREIGRAAFASFLQRMNDSYREQLRDIVVTANDEGTRVGAEYVVHGVYHTTDEGLPDANGQTYVLPGGAFFDVRDGQITRVTNYYNLQEWIAQVSR | not failed |
| MSESTAPSDTVLLRGGEVHSPADPFATAMVVERGQVAWVGSEGAADAFSAGVDEVVDLEGALVTPAFTDAHVHTTSTGLALTGLDLSGAPSLEAALALVRDFAAARPDDRVLLGHGWDTARWPGGRPPTRAELDEAADGRPLYLSRIDVHSAVVSTALLDLVPGITGRAGYLDGPLTRDAHHAVRGAALGAVSPAQRTEAQRAALAHAASLGIGSVHECAGPEISSEDDFTGLLRLAAEETGPRVVGYWAEWGEEGIDRARALGAVGAAGDLFVDGALGSHTACLHQPYSDAGHTGTAYLDDDAVAAHVIACTEAGLQAGFHAIGDAAVTSVVEGVRAAAEKVGLARVRAARHRVEHAEMLTPETIAAFAELGLTASVQPAFDALWGGADGMYAQRLGAERARTLNPFAALLRAGVPLAFGSDSPVTPLDPWGTVRAAAFHRTPEHRVSVRAAFTAHTRGGWRAIGRDDAGVLVPGAPADYAVWRTEELVVQAPDDRVARWSTDPRSGTPGLPDLTPGGDLPVCLRTVVGGRTVFVRPNE | failed |
| MSETDTAWIETALTSARPQAVGALLRYFRDLDTAEEAFQNACLRALKTWPQNGPPRDPAAWLIMVGRNVAIDEVRRARKQQPLPEDDQAISDLDDAEGALAERLDGSHYRDDILRLMFICCHPQLPATQQIALALRIVSGLTVKQIARAFLVSEAAMEQRITRAKAKVAEAGTPFETPGPIERSERLAGVAAMIYLIFNEGYSASGDTAEIRKPLCEEAIRLARLLLRLFQSEPEIMGLAALLLLQHARSAARFADDGSLILLEDQDRSLWNGSMIAEGLALIDKAMRHRRSGPYQIQAAIAALHARAATPEETDWAQIDLLYGALELAQPSPVVTLNRAVAVSKVRGPQAALDLIEPLAPKLGNYFHFHGVRGAFLMQLGRNDEARIAFDRAIALANTSAEAAHIRMHIDRLIRDSQPKSSNGSARQGAKAK | failed |
| MSEVHTTIIDLDAGAVFSGTPSGRIIKGFDKPCAHTPNIDPDYVFHECSRDIVVWLMDSSDPLYVFGPTGSGKTSAIKQLAARLNYPVFDVTGHGRLEFPDLVGHLSVRDGSMEFQYGPLALAMRHGGILLLNEIDLLEPATATGFNGILDGEPLCIPENGGEIITPHPMFRFAATANTNGGSDDTGLYQGTLRQNLAFLDRFWLCEMPYPAPEAEKALLERRAPMLPDDIRTRMVDYANEVRRLFMGESGTTYGHSIEVTFSTRTLLRWADLTVRFQPLARQGIQPLTYALDRALGFKASKDTRTTLHELAQRLFPQHAATGE | failed |
| MSEVTKNSLEKILPQLKCHFTWNLFKEDSVSRDLEDRVCNQIEFLNTEFKATMYNLLAYIKHLDGNNEAALECLRQAEELIQQEHADQAEIRSLVTWGNYAWVYYHLGRLSDAQIYVDKVKQTCKKFSNPYSIEYSELDCEEGWTQLKCGRNERAKVCFEKALEEKPNNPEFSSGLAIAMYHLDNHPEKQFSTDVLKQAIELSPDNQYVKVLLGLKLQKMNKEAEGEQFVEEALEKSPCQTDVLRSAAKFYRRKGDLDKAIELFQRVLESTPNNGYLYHQIGCCYKAKVRQMQNTGESEASGNKEMIEALKQYAMDYSNKALEKGLNPLNAYSDLAEFLETECYQTPFNKEVPDAEKQQSHQRYCNLQKYNGKSEDTAVQHGLEGLSISKKSTDKEEIKDQPQNVSENLLPQNAPNYWYLQGLIHKQNGDLLQAAKCYEKELGRLLRDAPSGIGSIFLSASELEDGSEEMGQGAVSSSPRELLSNSEQLN | failed |
| MSEVVKKFMYLNRKAPYGTIYAWEALEVVLIGAAFDQDVCVLFLDDGVYQLTRGQDTKGIGMKNFSPTYRTLGDYEVRRIYVDRDSLEARGLTQDDLVEIAFEDMETEEEFDNIVEVIDSARVSELMNESDAVFSF | not failed |
| MSEYLPIIIPSVFLVIPSIAILYMEKRFSTAVYTAVIGLLISFLSFTLFFSLGYYNYGVFNNALYLTKFGYFIAISSLIATILVVLGSSNDLKNWETGTSFLSLSLLTNIGVIYLAFAYNVLVIFASWAIASAATYVIAMLKKDYQSVEAGVKYLVMGLLSSSLMIIGLAFFVTAGNTLYLDPVISYQPLIVLSIIFFSIAFLFKIGAFPFQGWLPEVYSLADRFSVGFVSSVGKIVGIEPLLVILYYLIQDNSSSQVIYLTVVILFSIISVLSLIFGNISAFSRKDFAQILAYSSITQVGFMVIGIAMLPVNMNIAISGLMVYLLSYSIAQAGLFVSLSHVEKITGSSYFESFRGMSSGDRVLAFSMTILLLSLLGIPPILGFWAKLFVLESSFSQPWLTIIGFINSAISAGYYIPPIREIFREGQFKKVDSPERDSVIVAAVLSIALGIISPLIFGVLV | failed |
| MSEYRTVSAAAMLGTYEDFLELFEKGYEDKESVLKSNILYDVLRNNNDEARYKISMFLINKGADIKSRTKEGTTLFFPLFQGGGNDITGTTELCKIFLEKGADITALYKPYKIVVFKNIFNYFVDENEMIPLYKLIFSQSGLQLLIKDKWGLTALEFVKRCQKPIALKMMEDYIKKYNLKENS | not failed |
| MSFDISELLTLYDVVTFSFPERYEDLMREIIEKATRLFGVRRLAIVLREGERYKCIERWGFRRDEEVLERIKNGGENSFIYLMRNGEQGLLYIEPPGRISEREKRLYTIFARRIENIIARKQIEEKIKNSEQEKKVILDSIVELLVFQNPDNRILWANRAAAEYAGARSEELAGRFCYEALHHRDEPCEECPVIKALDTGVPQEGIIASLEGRQFFVRGYPVKKENGLIEGIVEVSVDVTERMQAEEAFRTIFNSVHDAIFIHTLDGKIIDVNQTMLRMYVINSKEEAIKLSIIDDYSIPGSTAEQLPLLWQKVISGENLLFEWKARRPVDGSVFDVEVFLKKISLSKKDVILAAVRDITERKREEELLRNLFTHSPIGMYIVSEGKFQLINPQFEILTGYRQDKLIGMESLNLVVPEDRKMVRSNAIKMLKGEAVEPYEFRIVTGQGDIRWMEETVASIWHDGKRVTLGNIIDITQKKKFEQKLAYISLHDQLTALYNRAYFEEELKRLSTSRKYPITIIVADVNGLKLVNDTMGHDKGDELLTACARVLKKAFRSSDVVARVGGDEFVALLPRTDGKTGKSILKRLRLFIDKYNQEHPELPLSVSFGIATADTPEQSLKEIYKKADDLMYQEKLNLGSSARSKIVNALLTALSERDYITEGHARRMQKLCQDLGEKVGLSAQQLANLSLLAQVHDLGKVGIPDRILFKRGPLTEKEWEVMRQHPEKGYRIAMSSPDLAGIADLILKHHEKWDGTGYPLGLKEEEIPIECRILSIVDAFDAMTSGRPYCRTKTIEDALKEIRRCAGTQFDPRLAEAFIEMITSEKFTAGEKEVAT | failed |
| MSFFLTTPAAIDLGVNIDHVATLRNARGTAYPDPVRAALAAEDAGADAITLHLREDRRHIVDADVRTLRPRVKTRMNLECAVTPEMLDIACEIRPHDACLVPEKRSELTTEGGLDVVGHFDAVRAACKQLADAGVRVSLFIDPDEAQIRAAHETGAPVIELHTGRYADAHDAAEQQREFERIATGVDAGIALGLKVNAGHGLHYTNVQAIAALPGIAELNIGHAIVAHAVFVGWDNAVREMKAIMVAARVAALHGGR | not failed |
| MSFGDTLGLGFMTFAFFLGAGNLIFPPFAGMLAGENMLLAMLGFLITAVGLPLVGLIAVAKAQGKVMAMLPVFAATALAIAIYIIIGPAFAAPRTGLVAYEIGAKPFIDNTTATIMLGSLSLNLSQLIYTLGFFIVTMLLALFPGKLLDSVGKVLTPILLLLLVGLALSVLFLPASEVGVAVGDYKNHPLTKGILEGYNTMDTLASLMFGMLIIDLLRKKGIEQPSAQTKYLIRAAFIAAAGLAFVYVSLFFLGATAGDIAAGAKNGGEILTNYVTREFGSLGTVLLSAVVTLACLTTAVGLVSACSEFFNELMPKLSYRFLVVALSAICALIANVGLSQLINISIPVLMAVYPVAIALVAVTFLTEYFPRPQFAHRAALSVALLFGIFDGMKVAAKSLTGEDGRGITEFAQSFIDFVNGMSPTLSILPLYEEGMAWLLPTLVVIVLCLIIRGSGAKTVSAA | failed |
| MSFIRTFYGDIAPEQLGFTYSHEHIVCVPAYWQERDADDLLLDDKEKSQLDVQDFADLGGKTIVDATAVDYGRRVLDVAQISKETGIQIVGTAGFNKSFLWDGKIKPELKPIIGDFETYYEWIENTSIDKLTEFVVNEVENGLEGTPYKAGQVKFGTGYNMITPLEEKTIRAVARAHHETKAPIHSHTEAGTMALEQIEILKQENIPLEYLSIGHMDRNLDPYYHKQVAKTGAFMSFDGIAKIKYAPESARIAAILYLVSEGFEDQILVSGDTARKTYYKHYGHGPGLEYIAKKWVPRFIDEANEKGFDGEKLVKKFFVDNPARCFTFKK | failed |
| MSFKRDRGDYKGRIDWFTIILYLLLVVAGWFAVCGASYDFDISHLFMMGGRPMMQLLWIGLAVVIGFMVLLMETDIFESLAPVFYAAMLGLLALTILIAPDIKGSHSWLVIGPLRLQPAEFAKVTTALFLAWKLNQNDFVLRGMKAYASTFAIILIPVLLILMQNETGSALVYIAFFLALYREGMSGVFIGIAFCAVLFFVTALKLQGDVWWGHTDAAEWSVVSMAFVIGFFLVRIYTKERGRFYVVAAGLTAVTYAVAIVLSYFVSVDFVLVAYGLLAALIVWALSMAIKRYVLSYALIAVFALCSVGYFYSVDYVFNKVMQPHQQMRIRVALGIEDDLRGGGYNVDQSKIAIGSGGFMGKGFLKGTQTKLKYVPEQDTDFIFCTVGEEQGFLGSVLLLIGYATLIIRIVALAERQTKVFSRVYGHSVAAILLFHLSINVGMVIGLVPVIGIPLPFFSYGGSSLWGFTLLIFIFLRLDADRDCR | failed |
| MSFLCVRTVSRFRSLSRALAPGFLLLHGNAVPKTAVFFRQQSSNTRLFSSYTAPSGVEENNSKSALKNKLPPGKEVSSKDAKEKITTSAIDLALNSVVKVFTVSSKPRLFQPWQITMQSESTGSGFVISGKKILTNAHVVANQTSVKVRKHGSTTKYKAKVQAVGHECDLAILEIDNDKFWEGMNPLELGDIPSMQDTVYVVGYPKGGDTISVSKGVVSRVGPIKYSHSGTELLAIQIDAAINNGNSGGPVIMGNKVAGVAFESLCYSDSIGYIIPTPVIRHFLNAIEESGEDVSFGSINLTYQKMDNDQLRKDFKMSDKMTGILINKINPLSDVHKVLKKDDIILAIDGVPIGNDSSVHFRKKERITFKHLVSMKKPCETALLKVLREGKEYEFNSSLKSVPPLVPKRQYDKSASYYIFGGLVFLPLTKPYIDSSCVSESALGKMPKKAGEQVVIISQILEDDINTGYSIFEDFQVKKVNGVQVHNLKHLYKLVEECCTETVRMDLEKDKVITLDYKSAKKVTSKILKSLKIPSAVSEDLQPKQQNKRSKVPPKSKEH | failed |
| MSFRAFLPAAMLVTVAGFWLGASTPGVAQYCEGTVHGLSGRYNLATGSGFLAVRTRPNSSSRMIGQLFNGDHVEIFDRRGNWYQVEIGGSTGWANARWLRNDCRY | failed |
| MSFSDHFSAVAASYAKARPRYPQRWFRYLARIVPDRQRVWDCATGNGQAAIALAEYFSEVIGSDASAAQVRQARSHPRVQYLVFPAEATPLAPASLDLITVAQAAHWFDLPQFYIEAQRLLRPGGVIALWGYGLGSLNPAIDHVFNHFYRDWLDPYWPPERQWVEQAYEGLSFPFEPLPTPTFSMQCDWTLFDLLAYLRTWSGVQQFQRQRGFDPVWAIAPELQRVWGDPQRYRRITWPLFAKVGRWQPDRVRLEHHHHHH | failed |
